Entries after “also recorded” stand apart in the source; their conditions may differ.
What was measured:
E. faecium biofilms = experiment: Disruption of 24 h E. faecium biofilms in vitro (CLSM, COMSTAT average thickness); conditions: 24 h biofilms, 1 h incubation; non-bactericidal dose
neutrophils in BAL = experiment: Inflammatory cell recruitment into lungs of B. cenocepacia-challenged mice (H&E, flow cytometry of BAL); assay type: in vivo, C57BL/6 mice; conditions: B. cenocepacia-infected and simultaneously treated, 0.2 nmol, 18 hpi
[1] = as above; assay type: in vivo, C57BL/6 mice; conditions: B. cenocepacia-challenged mice, 0.2 nmol, 72 hpi
S. aureus biofilms = experiment: Disruption of 24 h S. aureus biofilms in vitro (CLSM, COMSTAT average thickness); conditions: 24 h biofilms, 16 h; non-bactericidal dose
UPEC biofilms [2] = experiment: Disruption of 24 h UPEC biofilms in vitro (CLSM, COMSTAT average thickness); conditions: 24 h UPEC biofilms, indicated concentrations of rHMGB1
B. cenocepacia = experiment: Murine model of lung infection by B. cenocepacia, bacterial burden; conditions: 0.2 nmol i.t. at 24 hpi; 72 hpi; α-EF-Tu labeling
Method: Intratracheal challenge of the murine lung with B. cenocepacia and treatment with HMGB1 isoforms: B. cenocepacia strain K56-2, was cultured in LB broth (Difco, Md.) at 37° C. overnight at 200 rpm. Bacterial concentration was adjusted before each experiment based on OD at 600 nm. C57BL/6 mice were infected intratracheally (i.t.) with 10^7 colony forming units (CFU) of B. cenocepacia. […] Animals were euthanized 24 or 48 hpi, and bronchoalveolar lavage (BAL) was collected with 1 ml of PBS plus 1 mM EDTA. […] The slides were permeabilized with 0.5% Triton X-100 for 10 minutes, blocked with 10% normal goat serum (Abcam) for 30 minutes and stained with a monoclonal antibody against E. coli Elongation Factor-Tu (α-EF-Tu; cross reacts with B. cenocepacia) (LSBio) overnight to label B. cenocepacia. The samples were then stained with goat α-mouse IgG Alexa Fluor 488 (Abcam) for 1 h at RT, mounted with fluoroshield media with DAPI (Abcam), visualized via the Nikon Eclipse Ti at 40× magnification (Nikon Instrument Inc. Americas) and analyzed by ImageJ software (NIH). To enumerate bacterial burden, the animals were euthanized 18 or 72 hpi, bronchoalveolar lavage was collected with 1 ml of PBS plus 1 mM EDTA, an aliquot of BAL was serially diluted and plated on LB agar. […] Neither animals nor samples were excluded from evaluation in any study.

UPEC biofilms [3] = conditions: 24 h UPEC biofilms, rHMGB1 200 nM, 16 h
TNF-α = experiment: Mouse model of endotoxemia, serum TNF-α by ELISA; assay type: in vivo, C57BL/6 mice; conditions: i.p. 0.2 nmol endotoxin-free rHMGB1 or LPS 5 mg/kg; 24 h
Method: Since excess HMGB1 can mediate dysregulated host response to infection associated with septic shock, the ability of rHMGB1 (0.2 nmol; the concentration used to treat in vivo biofilms) to induce septic shock was evaluated in mice. Mice were injected i.p. with either 0.2 nmol endotoxin-free rHMGB1, lipopolysaccharide (LPS; 5 mg/kg) or both, then monitored for signs of septic shock for 24 hours.
Mouse model of endotoxemia: C57BL/6 mice were injected i.p. with 5 mg/kg of E. coli lipopolysaccharide (Sigma), or 0.2 nmol rHMGB1 alone or in combination with LPS. Animals were euthanized 24 h later, serum was collected, and TNF-α was quantified by ELISA (ThermoFisher).

[4] = system: eDNA lattice within K. pneumoniae biofilms; experiment: Visualization of eDNA lattice structure within K. pneumoniae biofilms (immunofluorescence, CLSM); assay type: cell-based, Klebsiella pneumoniae; conditions: 24 h K. pneumoniae biofilms, 200 nM protein, 16 h
From the text: Per the model as disclosed herein, HMGB1 would compete with DNABII proteins, wherein instead of stabilization, HMGB1 would de-stabilize these HJ-like structures and consequently disrupt the biofilm.

[5] = system: pro-inflammatory and anti-inflammatory cytokines; experiment: Quantitation of cytokines in middle ear fluids (cytometric bead array); assay type: in vivo, chinchilla (Chinchilla lanigera); conditions: six days after NTHI challenge, one day after completion of treatment
Method: Quantitation of cytokines in middle ear fluids: To quantitate cytokines in middle ear fluids (MEF), a BD™ Cytometric Bead Array was performed with fluids collected at the time of animal sacrifice. With BD™ human-specific Flex Sets, each MEF was individually examined for relative quantity of IL-1β, IL-4, IL-6, IL-8, IL-10, IL12-p70, IL-13, IL-17A, TNF or IFNγ according to manufacturer's instructions. MEFs from each animal were assayed individually. Data were captured on a BD ACCURI™ C6 cytometer (BD Biosciences) and analyzed with FlowJo software (FlowJo, LLC). The concentration of cytokines in each MEF was determined using a standard curve and calculated using GraphPad Prism software.

[6] = system: biofilms formed by UPEC, B. cenocepacia, NTHI, Enterobacter spp, S. aureus, K. pneumoniae, A. baumanii, P. aeruginosa, E. faecium; experiment: Disruption of 24 h bacterial biofilms in vitro by HMGB1 isoforms (LIVE/DEAD stain, CLSM, COMSTAT average thickness); conditions: 24 h biofilms of nine pathogens; 200 nM protein, 16 h (S. aureus 800 nM rHMGB1; E. faecium 800 nM, 1 h)
Human neutrophils = experiment: NET formation by neutrophils incubated with HMGB1 isoforms (CLSM); assay type: cell-based; conditions: 200 nM protein, 3.5 h
Method: Neutrophils were fixed, then labeled as described above to visualize the NETs.
Visualization of NETs structure upon incubation of neutrophils with various isoforms of HMGB1: Human neutrophils were isolated from blood using the EASYSEP™ isolation kit (Stemcell Technologies Inc.). […] NETs were fixed in formalin, blocked with 10% normal goat serum (Life Technologies), and labeled with α-dsDNA monoclonal antibody (1 μg), and α-neutrophil elastase polyclonal antibody (1 μg) or naive rabbit and mouse isotype controls (1 μg) in 200 μl PBS for 16 h hours at 4° C. NETs were washed with PBS and incubated for 1 h with 1:200 dilution goat α-rabbit IgG conjugated to ALEXAFLUOR® 594, goat α-mouse IgG conjugated to ALEXAFLUOR® 488, and 1:500 dilution wheat germ agglutinin conjugated to ALEXAFLUOR® 350 (PMN membrane stain). NETs were imaged with a Zeiss LSM 800 confocal microscope (Carl Zeiss Inc.) and rendered with Zeiss Zen software.

HJ DNA = experiment: Stabilization of HJ DNA at RT or 55° C, non-denaturing PAGE; assay type: binding; conditions: 32P HJ DNA, 25-500 nM protein, 10 min
Method: 5′ end-labeled ^32P HJ DNA was incubated with increasing concentrations (25-500 nM) of IHF (FIG. 8A), rHMGB1 (FIG. 8B) or RuvA (FIG. 8C) either at room temperature (RT) or at 55° C. for 10 min, then resolved on a 6% non-denaturing PAGE. Asterisk indicates melted oligos and arrows indicate DNA-protein complex. […] This outcome contrasts with that observed with both IHF and the prototypic HJ DNA binding protein, RuvA.
To test the hypothesis, HJ DNA was incubated with either HMGB1, the DNABII protein IHF, or the prototypic HJ DNA binding protein, RuvA at room temperature (RT) or 55° C. (melting temperature of HJ DNA) and resolved the complexes by non-denaturing polyacrylamide gel electrophoresis (PAGE). […] (FIG. 8) as indicated by the decrease in abundance of the shifted HJ DNA-HMGB1 complex (arrow) and the concomitant increase in the constituent melted oligos (asterisk).
Electrophoretic mobility shift assay (EMSA): EMSA was performed as previously described (Devaraj et al., 2019).

B1: rHMGB1: recombinant HMGB1 derived from a human, expressed and purified in E. coli, SEQ ID NO: 51; comparator to mHMGB1 (protein, listed as Homo sapiens)
chain: MGKGDPKKPRGKMSSYAFFVQTCREEHKKKHPDASVNFSEFSKKCSERWKTMSAKEKGKFEDMAKADKARYEREMKTYIPPKGETKKKFKDPNAPKRPPSAFFLFCSEYRPKIKGEHPGLSIGDVAKKLGEMWNNTAADDKQPYEKKAAKLKEKYEKDIAAYRAKGKPDAAKKGVVKAEKSKKKKEEEEGEEDEEDEEEEEDEEDEDEEEDDDDE
- dose required to achieve a similar reduction in biofilm average thickness, E. faecium (E. faecium biofilms): 800 nM
- neutrophils in BAL (flow cytometry) (neutrophils in BAL): significantly greater number of neutrophils in BAL compared to the control
- infiltration of inflammatory cells into lungs (H&E) [1]: significant infiltration of inflammatory cells
- dose required to achieve a similar reduction in biofilm average thickness, S. aureus (S. aureus biofilms): 800 nM
- dose dependence of UPEC biofilm disruption (UPEC biofilms [2]): dose-dependent disruption; also recorded: dose-dependent activity
- B. cenocepacia stained within the lung tissue (B. cenocepacia): significantly reduced bacterial load
- bacteria in the planktonic state (UPEC biofilms [3]): statistically significant increase in the planktonic bacteria
- biofilm-resident bacteria (UPEC biofilms [3]): statistically significant decrease in biofilm-resident bacteria
- serum TNF-α (septic shock) (TNF-α): did not induce septic shock; also recorded: did not induce detectable TNF-α
- biofilm bacteria (FilmTracer FM 4-64) [4]: substantial reduction in biofilm bacteria
- web-like eDNA lattice structure within biofilm [4]: disruption of the web-like structure; also recorded: notably disrupted
- IL-1β in middle ear fluids [5]: significantly elevated concentration; also recorded: statistically significant increase
- IL-17A in middle ear fluids [5]: significantly elevated concentration; also recorded: statistically significant increase
- biofilm average thickness compared to control [6]: significantly disrupted bacterial biofilms; also recorded: significant reduction in biofilm average thickness
- induction of NET formation by neutrophils (Human neutrophils): intertwined NETs specifically formed; also recorded: modest effect on induction of NETs
- stabilization of HJ DNA at 55° C (melting temperature of HJ DNA) (HJ DNA): unstable at 55 °C
- stabilization of HJ DNA at 55° C (melting temperature of HJ DNA) (HJ DNA; listed as HMGB1): unable to efficiently stabilize the HJ DNA at 55 °C
- HJ DNA-protein complex at room temperature (RT) (HJ DNA): stable at RT
- HJ DNA-protein complex at room temperature (RT) (HJ DNA; listed as HMGB1): bound to HJ DNA to form stable complexes at RT
